Assay: soluble on expression in E. coli; label from the status in PepcDB or PDB records

Sequence | soluble on expression in E. coli
MSLKITADEALTLSKSNGSDIFLLCSFANKLREKFNGNHVDLCSVINAKSGNCSEDCAFCAQSAHHKANVSCYPLLNEDKILEMAKQREAYGARHCDIATSGLGYTGDEKDFQTILKAFKKMKENTNLKLCACLGTLTEKAMNSLAAVGVERYNHNLETAKSFYKNIVSTHGYDERIKTINYAKNAKMEVCSGMIVGLGETMEQRIEHALLLRDLNVDAVPVNILNPVKGTKLENAKPLSPMEIIKTFAIIRFILPDKIIRYAGGREKNLRSLQPLGFLSGLNGMLIGNYLTTNGQSVNDDFNMLKDLELEYEGHHHHHH | not soluble
MSLKITILAVGKLKEKYWKQAIAEYEKRLGPYTKIDIIEVPDEKAPENMSDKEIEQVKEKEGQRILAKIKPQSTVITLEIQGKMLSSEGLAQELNQRMTQGQSDFVFVIGGSNGLHKDVLQRSNYALSFSKMTFPHQMMRVVLIEQVYRAFKIMRGEAYHK | soluble
MSLKITNVEAVALDVPIMVRHRKDPFVRQCNLVRIDTDSGISGYGYTSPGEWHSTAAKVVNDMFRDVLIGQNPCKINSVISSLSTRFNRHRATGAWASAVSMVDIGLWDLLGKLYGVPTSVLLGGARTEVPVYITFGLAEYSTEELVDTVSHLVDEGHTRFKMIVGGLRSRPITREESLRPGGSHWFQGFTEDLLLNDVKRVAAVREAIGPDKGLMVDGNGAFPLGEAKRLAQNLEPFNLIWFEEPVLGNDPDLLQRLRDQTTVPIAAGQNIGSLAAHRTLIESKSYDICQLNVTHCGGYSEALKIAHLAEAHNMPIATGGAQPHHNMHFHAGVQNGGLVEFHWLSWKVGEALFVDPPAPRNGFVSLTDEPGLGLEVRPDAIEKFRVEGHHHHHH | soluble
MSLKIWITKNHKSKDDWSRSKKFIIIKITTHDGVEGWGEAFSIHLREKAIATIIIELFKEISKIKNLSINSLYNKISLLSDNHKGLDFSAATSAIEIAAWDIAGKLKNLPLNCLLTDNPKPDVSIYVTCWSDLRKDEEDYLDQVEKYFEKKYGGIKIYPLFENTSNSIKFVDRVRKIVGMEYPLMLDLAIPKDLDQTKTFLKEVSFLKPYWIEEPVDGENISLLTEIKNSFDMKVVTGEKQSGLPHFKEIIKRDAADILNPDISGIGGIIDMLYVSKEALNNDISISPHCWNSMSVSASAMLHVCSSIPNSEKAEIFPDYIEFTKEFCELPFNIVEDKAILNQSAGLGIVIHEDTLSNLSTYRMDEKNEGHHHHHH | soluble
MSLKIYLFKPYDVIGFGGLKNFSAGETHIQKSIFPPPIMRFFHIFNSVYGVFLYKDGNLFLPVPSDCLVKRKEESGKAKISPLEFPPLIRGDLEAYERANGFISFSDLMNKYAKNIDGFKIYLLEEFLKKESRVGITMDKERRVVRSIKEINRKEEKGLLYSQDFFRFNDGVKLAVLGEINKDIVISGKQYFRMGGEGKIVSFKHTEHINSFLEGKIKIKNGNYYKFYCLTHAYINNGIIESKIQTICIEGINFEVEWLYNGGVEYVSGYNKPFLEMLRPGSVLILKAKNEGEIQRLNQISTNVPISNIKNFLNRGWNSGIIVEGVKEGHHHHHH | soluble
MSLKKEVVVIGGGIVGLSCAYSMHKLGHKVCVIEKNDGANGTSFGNAGLISAFKKAPLSCPGVVLDTLKLMLKNQAPLKFHFGLNLKLYQWILKFVKSANAKSTHRTMALFERYGWLSIDMYHQMLKDGMDFWYKEDGLLMIYTLEESFEKKLKTCDNSGAYKILSAKETKEYMPVVNDNICGSVLLTENAHVDPGEVMHSLQEYLQNVGVEFLYNEEVIDFEFKNNLIEGVITHKEKIQAETIILATGANPTLIKKTKNDFLMMGAKGYSITFKMPEELKPKTSSLFADIFMAMTPRRDTVRITSKLELNTNNALIDKEQIANMKKNLAAFTQPFEMKDAIEWCGFRPLTPNDIPYLGYDKRYKNLIHATGLGWLGITFGPAIGKIIANLSQDGANEKNADIMLFSAFFRDEGHHHHHH | not soluble
MSLKKKTTLSEEDQALFRQLMAGTRKIKQDTIVHRPQRKKISEVPVKRLIQEQADASHYFSDEFQPLLNTEGPVKYVRPDVSHFEAKKLRRGDYSPELFLDLHGLTQLQAKQELGALIAACRREHVFCACVMHGHGKHILKQQTPLWLAQHPHVMAFHQAPKEYGGDAALLVLIEVEEWLPPEGHHHHHH | soluble
MSLKKTEKAYEVKRAFNNNIVLVDDDEKEIILFAKGIGFNCKKGSIIPENTNIEKIFTIQDENNIANFRRVVGSNDEKFIAFCEELILEISRDFSEELNEIIHIGLIDHISFAIERMKKGEILRNPFLVEIETLYPKEFEAATKMVKKLEDFTGVSIVDDEIGFIAMHIHSARTTGKISHTIKFTYIANTAVEYIEDAFNIEVDRTSLSYARFISHLRFAIERLINNTPVKNELLSIIKLKYPESFKVAEEIGKAINEDFSLEVAEDEIGYLALHVERIRKNEGHHHHHH | soluble
MSLKLYYQQAMLLPKTKEILLRWEGVLSAGQRKASNAVVINLKGKMDMLLWAVAGSGKTEMMFEGMDWALRQGFRICVASPRVDVCLELLPRLKEAFPSMDIVCLYGDSKDNYQGEQFVIATTHQLIRFYETFQVIFIDEVDAFPYAKDPFLEYAVMKARTKEGSTIIITATPEKKWQEECVKGKRNFVKIPGRYHREGHHHHHH | soluble
MSLKMETGKLLMELSNLDGPSGYETNVVSYIKSVIEPFVDEAKTTRHGSLIGYKKGKGIGKLAFFAHVDEIGFVVSKVEGQFARLEPVGGVDPKVVYASKVRIYTKNGIERGVIGMLAPHLQDSESRKKVPTYDEIFVDLSLCERGVRVGDIAVIDQTAFETNGKVVGKALDNRASCGVLVKVLEFLKRYDHPWDVYVVFSVQEETGCLGALTGAYEINPDAAIVMDVTFASEPPFSDHIELGKGPVIGLGPVVDRNLVQKIIEIAKKHNVSLQEEAVGGRSGTETDFVQLVRNGVRTSLISIPLKYMHTPVEMVDPRDVEELARLLSLVAVELEVEGGSHHHHHH | soluble
MSLKMQEPIEDPLSKLTQYSGKTFVIKYGGSIMKNKKAEEAFIKDVKYLRKLGINIVIVHGGGPEISRWLELSGIESRFVDGLRVTDEKVIEIVQMVLSGKINKKLSLQFNIDGVNAVGLSGVDNKLIEATKKYVYKGNETIDIGYVGKVTKVNSEFIKELLKGGQVPVIAPIGCDNKGNVYNINADYAAAFISSALDAEKLIILTDVEGVYRNINDPQSIIHEIDIKDVNYYIKEEIIKGGMIPKVQCCASAIENGTKNVQLIDGRNDHCLINDILNYRGTIISYRSGVKCQKAIEGHHHHHH | soluble
MSLKNLTIKENQPAIYITNLGKYTEGEHMGQWLNVPATKEQFNVVLKNIGVDGVQYEEYFLTDWENIGGISQFSNIERVNNMAKIQIAINEKLYNFFGADQEITYFNDDKYKVMEILNDYAKEQADELTTDEIIENIESMRIFAQDQYNSCIVNFANYLIDELEFINFKAIEKIDQKVVNYFDFEKFGHDKLIELNANSDVIIGTYEVGKLNDTIIIVTLFEGHHHHHH | soluble
MSLKPEKPSDTELVFISNAETIRDYLLRLSVDELKLLAKYILQNVYIVFVQTDDFASSFRLFNVLNSRGLPLSNADLLKNALFESASTHNKKSEQIESAWSQIEDMVGVRRLDKFLTLHKLSEKKDRDRVLQKGFEAFIENLQQQFDGDAIAMSLMLVNSAKNYTKILENDFEHPSIRRKIASLSNLGVDEWIPPVMAFMNRMARTEDFNLDDFSQFITAFEKVYMHGWLKKQIKSQREMVCYSALVAINNDMPFDSVINQINQHADNSGFIAALDEDLYEPRPNQVNLIKAILLRLDMEQQDESVIKTYTGRITIEHILPQALVNEYWINRFQPQEHVYWLHKIGNLTLISGSKNSEAQHYDFIKKKSIYEKLNSKSSFDLTKDVCNSSEWGLAELKMRHEKMKTQLKKLWLVEGHHHHHH | not soluble
MSLKPGTLISMMTEEEANSITHLTLTGKLNAEDFRHLRDEFPSLKVLDISNAEIKMYSGKAGTYPNGKFYIYMANFVPAYAFSNVVNGVTKGKQTLEKVILSEKIKNIEDAAFKGCDNLKICQIRKKTAPNLLPEALADSVTAIFIPLGSSDAYRFKNRWEHFAFIEGEPLETTIQVGAMGKLEDEIMKAGLQPRDINFLTIEGKLDNADFKLIRDYMPNLVSLDISKTNATTIPDFTFAQKKYLLKIKLPHNLKTIGQRVFSNCGRLAGTLELPASVTAIEFGAFMGCDNLRYVLATGDKITTLGDELFGNGVPSKLIYKEGHHHHHH | not soluble
MSLKPKYKQIIDDIISQIDSGDLEQGMQLPSQRDMASLYQVNRSTVIQALDILKSQGIIEGREKQRLYVSGNTWHTYIKNNINWQNYISHSTTKNNQYFVQQINKLEFHTNMIRLGTGELAPDLIPNEQFKEILSKCHTPVLNTNYEPPQGNLKLREAVAQYMQKSGVSCTVDHICITSGALQGLKLIADGLLIPQSKIIVESPSYINSIRTWHNMRADIQQISISDIKSNINNIFKAQSQYTNSIFYCIPTLHNPTQHSYSTEEKQKIIMQCEQHGIPIVEDNVYGDLYFNHERPKPLKSFDTNDNILYLNSLSKTVSPGLRVGWIVAKPSVAAHLADLKMQNDYGASSISQYIATQWLTHPQYHDQHLKMLKNQLLIKRNLFLESLKKYFSDFGSWSTPEGSFYIWFQFKFSIDMKRLFDEAIAENILINPGEVYDKDARDCIRFSYAYVDAEDIDETLKHLSKIIQTRFTPPSSHIGKGNEGHHHHHH | not soluble
MSLKPSVVLNGDAITLGDIWENIGDKAGTPLANAPAPGKRITLETRWLMAVAQSYGIDWRPASPFERSVVERAGQSVDIRAIETELKEALSMEGAPAGASIEISNRQQLHIVIPATASPTVAVKDLAYDPRMNRFQAVVEAPAGAPNSVRFKVMGSVYASARIPVLAHAMGRGDVIREDDIQWVDVREEVVRRDIISNARMLVGQEPRYQLRAGVPVRTNEVQKPVVVAKNSSVTIMLRSKFMTLTAQGRAIEDGSVGDVIRVTNVQSKQTVDAKIEGPGQVSVMPGGLRTLANEGHHHHHH | not soluble
MSLKRFVAEKMDNQDHWDLNIAPLTNKHIAIVGAGPAGAQAAIELRRQGHEVTIYEKLDVYGGMMRVGIPEYRLPRDVIDFEYSYLAMLGIKTQFGVEIGKDISFDTLRSEHDAVILAHGAHVGSIIPLPGHDNDGVFSAVEYLKEISETRQFPRACKRVMVIGGGDVAMDCARSSWRIGASDVYQCSLESLESLPASQIEIDESLEEGVEFNAGWGPVAIEHENGKVTGITIKKVLSIFDEQGNFAPQYSEESKTISVDTVVFATGQIVADITDGALEQTRGGRYVVDKQTLASSLEDVFVAGDACGGNIVIEAMALGRKAAMSVERFLTARPLTEDRDFEQEYSYSSRLDVPLPKGTVDTPRLHGELRDAEERKQDFAQVDLGFTEEQIKQEASRCLQCSCKLCMTECIMMNDFSDCPKTIFSDFVNNKSMDPLLAYSCNACDQCTIVCPKDFPMKEMFLGARTDFVKANNGESPMPGHKAINMHQKLGFSKIFTMAKRAVSTKEGHHHHHH | soluble
MSLKRILLSSDRSGSGKTLITSAIMRALSKKYKVRGFKAGPDFIDPGYHKIATGFPSINLDLWMMGKNNVKRSLAKYGKEFDIGIIEGVMGLYDGVDTLYSTYELAKVTKTPIILIINCSNIGSTVGAIVKGLKYYRSDVSIRGVIFNKIASETHYNYCRNAVEDVEVLGYVPFDKNLEIKSRHLGLVTVEDNREVQNLIRYASELVEKYVDLDKIYEMASDEDLEIDLPEDNESNGVKRKMAIAYDPAFSFYYQENLDILKNKYELEFFSPLNNEYVEDAEAIYIGGGYPELHLNELEKSTRTKKWLKNMSYAGVKIYAECGGLMYLSKNLIDENNKNHSMTGIFDIDIKTKDKLTIGYTELEAVKENFIVNKNNVVRGHEFHVSKPISVNEKEFVFKVRIGKGIINKLDGVKSNNTVASYSHLHFSNFQLRIVFEGHHHHHH | not soluble
MSLKRVMLKISGEALAGTNGYGIDFEVANRIAKEIKEIVDLGIEVGAVVGGGNIWRGRNGKGMDRTTADYMGMLATCINALALQDSLENMDVDTRVQTAIEMKQVAEPFIRRRAMRHLEKGRVVIFAGGTGNPYFSTDTTAALRAAEIEADVILLAKKVDGVYDKDPHKYDDAIKFDNLTYMEVLEKNLQVMDSTATSLCMDNNIPIIVFGLDVSGNIRKAVLGEKIGTIVSKEGHHHHHH | soluble

Reference: the DeepSol protein solubility set
